Assay results taken from US8501696.

Tests used:
[1] = target: human gp130 on the BAF3 cell surface (human) (UniProt P40189); test: cell-based or functional assay
[2] = target: Hyper-IL-6 (designer cytokine consisting of covalently linked IL-6 and sIL-6R) (human) (UniProt P08887); test: SPR; conditions: Fc fusion
Target sequence in this assay (P08887 20-323, chain 1 of 2): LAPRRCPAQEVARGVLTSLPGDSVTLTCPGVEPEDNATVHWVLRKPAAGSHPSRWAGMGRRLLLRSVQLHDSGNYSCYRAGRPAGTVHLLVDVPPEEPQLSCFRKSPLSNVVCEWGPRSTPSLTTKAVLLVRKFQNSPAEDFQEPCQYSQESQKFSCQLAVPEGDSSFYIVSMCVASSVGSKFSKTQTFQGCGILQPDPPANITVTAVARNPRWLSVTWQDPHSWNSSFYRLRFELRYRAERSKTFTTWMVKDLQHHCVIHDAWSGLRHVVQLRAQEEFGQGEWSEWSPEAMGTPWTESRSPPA
Target sequence in this assay (P05231 30-212, chain 2 of 2, further chain): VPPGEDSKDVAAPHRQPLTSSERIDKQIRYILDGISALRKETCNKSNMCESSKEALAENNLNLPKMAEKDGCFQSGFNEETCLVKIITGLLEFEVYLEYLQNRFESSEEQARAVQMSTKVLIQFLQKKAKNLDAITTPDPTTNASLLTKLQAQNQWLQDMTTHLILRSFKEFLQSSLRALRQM

[3] = target: Hyper-IL-6 (designer cytokine consisting of covalently linked IL-6 and sIL-6R) (human) (UniProt P08887); test: cell-based or functional assay
Target sequence in this assay (P08887 20-323 limits assumed, chain 1 of 2): as the sequence (P08887 20-323, chain 1 of 2) above
Target sequence in this assay (P05231 30-212 limits assumed, chain 2 of 2, further chain): as the sequence (P05231 30-212, chain 2 of 2, further chain) above

[4] = target: human IL-6/sIL-6R complex (interleukin-6 plus soluble interleukin-6 receptor) (human) (UniProt P05231); test: cell-based or functional assay
Chain of human IL-6/sIL-6R complex (interleukin-6 plus soluble interleukin-6 receptor) (human) (P05231 30-212 limits assumed, chain 1 of 2): as the sequence (P05231 30-212, chain 2 of 2, further chain) above
Chain of human IL-6/sIL-6R complex (interleukin-6 plus soluble interleukin-6 receptor) (human) (P08887 20-358 limits assumed, chain 2 of 2, further chain): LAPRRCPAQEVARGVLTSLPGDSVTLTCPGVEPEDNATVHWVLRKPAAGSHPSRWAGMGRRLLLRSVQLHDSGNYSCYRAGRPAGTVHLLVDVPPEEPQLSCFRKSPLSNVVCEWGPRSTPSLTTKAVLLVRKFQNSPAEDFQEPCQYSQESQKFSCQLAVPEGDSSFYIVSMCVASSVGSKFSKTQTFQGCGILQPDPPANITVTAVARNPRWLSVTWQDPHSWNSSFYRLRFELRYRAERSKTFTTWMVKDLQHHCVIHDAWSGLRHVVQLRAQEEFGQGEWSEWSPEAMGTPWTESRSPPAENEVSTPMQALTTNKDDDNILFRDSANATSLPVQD

[5] = target: Hyper-IL-6 (designer cytokine consisting of covalently linked IL-6 and sIL-6R) (human) (UniProt P08887); test: SPR, ProteOn XPR36, mutein immobilised, Hyper-IL-6 80 to 2.5 nM in flow, 25 C
Target sequence in this assay (P08887 20-323 limits assumed, chain 1 of 2): as the sequence (P08887 20-323, chain 1 of 2) above
Target sequence in this assay (P05231 30-212 limits assumed, chain 2 of 2, further chain): as the sequence (P05231 30-212, chain 2 of 2, further chain) above

Chain of human gp130 on the BAF3 cell surface (human) (P40189 23-918): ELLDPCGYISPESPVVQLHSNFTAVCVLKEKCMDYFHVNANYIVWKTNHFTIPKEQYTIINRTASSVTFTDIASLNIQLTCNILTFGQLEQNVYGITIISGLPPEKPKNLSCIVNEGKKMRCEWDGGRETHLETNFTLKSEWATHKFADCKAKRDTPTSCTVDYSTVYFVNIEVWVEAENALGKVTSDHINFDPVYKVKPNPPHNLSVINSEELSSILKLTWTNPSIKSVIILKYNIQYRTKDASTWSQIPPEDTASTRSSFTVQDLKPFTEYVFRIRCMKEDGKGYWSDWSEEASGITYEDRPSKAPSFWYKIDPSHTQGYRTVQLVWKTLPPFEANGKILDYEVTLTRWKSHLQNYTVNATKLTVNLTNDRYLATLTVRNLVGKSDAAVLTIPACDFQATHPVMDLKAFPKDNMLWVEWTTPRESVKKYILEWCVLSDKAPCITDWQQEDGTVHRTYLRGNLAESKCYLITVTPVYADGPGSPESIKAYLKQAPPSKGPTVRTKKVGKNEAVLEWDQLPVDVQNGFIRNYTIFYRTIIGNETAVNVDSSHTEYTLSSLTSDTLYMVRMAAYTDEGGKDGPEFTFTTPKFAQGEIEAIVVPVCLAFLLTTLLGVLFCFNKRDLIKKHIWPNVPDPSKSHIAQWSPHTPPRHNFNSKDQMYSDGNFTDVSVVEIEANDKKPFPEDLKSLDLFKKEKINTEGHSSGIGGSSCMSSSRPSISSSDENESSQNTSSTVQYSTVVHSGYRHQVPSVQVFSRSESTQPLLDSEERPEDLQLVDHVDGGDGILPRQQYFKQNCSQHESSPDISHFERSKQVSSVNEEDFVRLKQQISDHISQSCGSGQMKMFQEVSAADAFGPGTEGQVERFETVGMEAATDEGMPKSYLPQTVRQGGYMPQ

Substance: murine IL-6/sIL-6R complex (from UniProt P08505 25-211; P22272 20-364) (ligand)
- amount needed for the same proliferation signal in BAF3/gp130 cells, against human IL-6/sIL-6R [1]: 3 fold

Substance: sgp130Fc triple mutein Thr102Tyr/Gln113Phe/Asn114Leu (T102Y/Q113F/N114L) (from UniProt P40189 23-619)
- Kd [2]: 0.122 nM

Substance: sgp130Fc triple mutein Thr102Tyr/Gln113Phe/Asn114Leu (T102Y/Q113F/N114L) (from UniProt P40189 23-619) (Fc fusion)
- IC50 of inhibition of BAF3/gp130 proliferation, fold lower than wild type sgp130Fc (Cell Titer-Blue assay) [3]: > 3 fold
- IC50 of inhibition of BAF3/gp130 proliferation, fold lower than wild type sgp130Fc (MTS assay) [4]: 3 fold
- fold increase of the affinity constant KD against wild type sgp130Fc [5]: 4 fold
